Data set [1] has as its system HeLa Kyoto. Put plainly: melting temperature (median over replicates), in situ; higher = more thermally stable.
The test system of data set [2] is HeLa Kyoto. Put plainly: thermal stability score vs G1/S (z-score of summed log2 fold changes over temperatures); higher = more thermally stable than in G1/S.
The test system of data set [3] is HeLa Kyoto. Put plainly: solubility in G1/S (NP-40 vs SDS abundance) (log2 ratio); higher = more soluble. Particulars: cell cycle stage: G1/S.
Data set [4] concerns HeLa Kyoto. The experiment in a line: solubility change mitosis vs G1/S (difference of NP-40 vs SDS log2 ratios) (log2 ratio difference); higher = more soluble in mitosis.
The mark [5] stands for this setting: cell cycle stage: early G1 (4.5 h after nocodazole release).
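Wherever melting temperature (median over replicates), in situ is given: HeLa Kyoto cells synchronized by double thymidine or nocodazole block, proteins quantified by TMT10plex mass spectrometry, three independent biological replicates.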
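Wherever solubility change mitosis vs G1/S (difference of NP-40 vs SDS log2 ratios) is given: synchronized HeLa Kyoto cells (double thymidine block for G1/S, nocodazole release for mitosis), protein amounts in NP-40 versus SDS lysates quantified by mass spectrometry, three biological replicates.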
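Wherever solubility in G1/S (NP-40 vs SDS abundance) is given: HeLa Kyoto cells arrested at G1/S by double thymidine block, proteins quantified by TMT10plex mass spectrometry in mild NP-40 versus SDS extracts, three biological replicates.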
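Wherever thermal stability score vs G1/S (z-score of summed log2 fold changes over temperatures) is given: synchronized HeLa Kyoto cells, proteins quantified by TMT10plex mass spectrometry, three biological replicates, mitosis taken 0.5 h after nocodazole release, G1/S directly after double thymidine block.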

MFSD12, sequence (chain, as listed by the source): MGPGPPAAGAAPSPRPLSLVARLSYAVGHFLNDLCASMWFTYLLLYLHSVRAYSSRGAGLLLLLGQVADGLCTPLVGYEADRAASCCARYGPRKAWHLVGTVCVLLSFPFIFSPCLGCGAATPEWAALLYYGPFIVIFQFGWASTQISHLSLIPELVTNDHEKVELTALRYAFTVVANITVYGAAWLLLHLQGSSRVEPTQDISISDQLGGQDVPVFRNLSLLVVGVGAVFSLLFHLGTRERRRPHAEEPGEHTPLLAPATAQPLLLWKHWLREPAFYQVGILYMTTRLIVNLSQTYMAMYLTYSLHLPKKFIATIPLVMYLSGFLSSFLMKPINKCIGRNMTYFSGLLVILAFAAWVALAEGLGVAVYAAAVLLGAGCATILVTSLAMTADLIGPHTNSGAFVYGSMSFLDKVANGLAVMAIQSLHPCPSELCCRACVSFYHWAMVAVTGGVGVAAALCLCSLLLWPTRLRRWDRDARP

In the case of “MAELSEEALLSVLPTIRVPKAGDRVHKDECAFSFDTPESEGGLYICMNTFLGFGKQYVERHFNKTGQRVYLHLRRTRRPKEEDPATGTGDPPRKKPTRLAIGVEGGFDLSEEKFELDEDVKIVILPDYLEIARDGLGGLPDIVRDRVTSAVEALLSADSASRKQEVQAWDGEVRQVSKHAFSLKQLDNPARIPPCGWKCSKCDMRENLWLNLTDGSILCGRRYFDGSGGNNHAVEHYRETGYPLAVKLGTITPDGADVYSYDEDDMVLDPSLAEHLSHFGIDMLKMQKTDKTMTELEIDMNQRIGEWELIQESGVPLKPLFGPGYTGIRNLGNSCYLNSVVQVLFSIPDFQRKYVDKLEKIFQNAPTDPTQDFSTQVAKLGHGLLSGEYSKPVPESGDGERVPEQKEVQDGIAPRMFKALIGKGHPEFSTNRQQDAQEFFLHLINMVERNCRSSENPNEVFRFLVEEKIKCLATEKVKYTQRVDYIMQLPVPMDAALNKEELLEYEEKKRQAEEEKMALPELVRAQVPFSSCLEAYGAPEQVDDFWSTALQAKSVAVKTTRFASFPDYLVIQIKKFTFGLDWVPKKLDVSIEMPEELDISQLRGTGLQPGEEELPDIAPPLVTPDEPKGSLGFYGNEDEDSFCSPHFSSPTSPMLDESVIIQLVEMGFPMDACRKAVYYTGNSGAEAAMNWVMSHMDDPDFANPLILPGSSGPGSTSAAADPPPEDCVTTIVSMGFSRDQALKALRATNNSLERAVDWIFSHIDDLDAEAAMDISEGRSAADSISESVPVGPKVRDGPGKYQLFAFISHMGTSTMCGHYVCHIKKEGRWVIYNDQKVCASEKPPKDLGYIYFYQRVAS [USP5]”, the melting temperature in data set [1] (cell cycle stage: G1/S) amounted to 52 °C; in data set [1] (cell cycle stage: mitosis) it was 51.9 °C. Moreover, the results for the thermal stability score in data set [2] (setting [5]) and in data set [2] (cell cycle stage: mitosis) were 0.203 and 0.183, respectively. In addition, the “solubility in G1/S (log2)” value in data set [3] turned out to be 0.218. Moreover, the “solubility change mitosis (log2)” value in data set [4] was -0.139.

Regarding “MVRGARQPQQPRSRLAPRLTGTVEKPPRKRRSRTEFALKEIMSSGGAEDDIPQGERKTVTDFCYLLDKSKQLFNGLRDLPQYGQKQWQSYFGRTFDVYTKLWKFQQQHRQVLDNRYGLKRWQIGEIASKIGQLYYHYYLRTSETSYLNEAFSFYSAIRQRSYYSQVNKEDRPELVVKKLRYYARFIVVCLLLNKMDVVKDLVKELSDEIEDYTHRFNTEDQVEWNLVLQEVAAFIEADPVMVLNDDNTIVITSNRLAETGAPLLEQGMIVGQLSLADALIIGNCNNQVKFSELTVDMFRMLQALEREPMNLASQMNKPGMQESADKPTRRENPHKYLLYKPTFSQLYTFLAASFKELPANSVLLIYLSATGVFPTGRSDSEGPYDFGGVLTNSNRDIINGDAIHKRNQSHKEMHCLHPGDLYPFTRKPLFIIVDSSNSVAYKNFTNLFGQPLVCLLSPTAYPKALQDQSQRGSLFTLFLNNPLMAFLFVSGLSSMRRGLWEKCQEYLRKINRDIAQLLTHSRSIDQAFLQFFGDEFLRLLLTRFIFCSATMRMHKIFRETRNYPESYPQLPRDETVENPHLQKHILELASILDVRNVFFENTIDDY [SCAI]”, the thermal stability score in data set [2] (setting [5]) is 0.148; in data set [2] (cell cycle stage: mitosis), -0.274. Besides, the “solubility in G1/S (log2)” value in data set [3] is -0.309. Further, the “solubility change mitosis (log2)” value in data set [4] is -0.117.

For the substance “MPDIIWVFPPQAEAEEDCHSDTVRADDDEENESPAETDLQAQLQMFRAQWMFELAPGVSSSNLENRPCRAARGSLQKTSADTKGKQEQAKEEKARELFLKAVEEEQNGALYEAIKFYRRAMQLVPDIEFKITYTRSPDGDGVGNSYIEDNDDDSKMADLLSYFQQQLTFQESVLKLCQPELESSQIHISVLPMEVLMYIFRWVVSSDLDLRSLEQLSLVCRGFYICARDPEIWRLACLKVWGRSCIKLVPYTSWREMFLERPRVRFDGVYISKTTYIRQGEQSLDGFYRAWHQVEYYRYIRFFPDGHVMMLTTPEEPQSIVPRLRTRNTRTDAILLGHYRLSQDTDNQTKVFAVITKKKEEKPLDYKYRYFRRVPVQEADQSFHVGLQLCSSGHQRFNKLIWIHHSCHITYKSTGETAVSAFEIDKMYTPLFFARVRSYTAFSERPL [FBXO9]”, the thermal stability score in data set [2] (setting [5]) is 0.568; in data set [2] (cell cycle stage: mitosis), 0.333. The “solubility in G1/S (log2)” value in data set [3] was -0.365. For the same substance, the “solubility change mitosis (log2)” value in data set [4] came to 0.156.

As to “MGSENSALKSYTLREPPFTLPSGLAVYPAVLQDGKFASVFVYKRENEDKVNKAAKHLKTLRHPCLLRFLSCTVEADGIHLVTERVQPLEVALETLSSAEVCAGIYDILLALIFLHDRGHLTHNNVCLSSVFVSEDGHWKLGGMETVCKVSQATPEFLRSIQSIRDPASIPPEEMSPEFTTLPECHGHARDAFSFGTLVESLLTILNEQVSADVLSSFQQTLHSTLLNPIPKCRPALCTLLSHDFFRNDFLEVVNFLKSLTLKSEEEKTEFFKFLLDRVSCLSEELIASRLVPLLLNQLVFAEPVAVKSFLPYLLGPKKDHAQGETPCLLSPALFQSRVIPVLLQLFEVHEEHVRMVLLSHIEAYVEHFTQEQLKKVILPQVLLGLRDTSDSIVAITLHSLAVLVSLLGPEVVVGGERTKIFKRTAPSFTKNTDLSLEDSPMCVVCSHHSQISPILENPFSSIFPKCFFSGSTPINSKKHIQRDYYNTLLQTGDPFSQPIKFPINGLSDVKNTSEDSENFPSSSKKSEEWPDWSEPEEPENQTVNIQIWPREPCDDVKSQCTTLDVEESSWDDCEPSSLDTKVNPGGGITATKPVTSGEQKPIPALLSLTEESMPWKSSLPQKISLVQRGDDADQIEPPKVSSQERPLKVPSELGLGEEFTIQVKKKPVKDPEMDWFADMIPEIKPSAAFLILPELRTEMVPKKDDVSPVMQFSSKFAAAEITEGEAEGWEEEGELNWEDNNW [SCYL3]”, the thermal stability score in data set [2] (setting [5]) is 0.969; in data set [2] (cell cycle stage: mitosis) it was 0.364. Besides, in data set [3], the “solubility in G1/S (log2)” value is -0.0689. The “solubility change mitosis (log2)” value in data set [4] is -0.0596.

Take MFSD12: the thermal stability score in data set [2] (setting [5]) stood at 0.154; in data set [2] (cell cycle stage: mitosis) it was 0.3. In addition, the “solubility in G1/S (log2)” value in data set [3] is -0.246. For the same substance, the “solubility change mitosis (log2)” value in data set [4] was -0.237.

Take “MLLAQINRDSQGMTEFPGGGMEAQHVTLCLTEAVTVADGDNLENMEGVSLQAVTLADGSTAYIQHNSKDAKLIDGQVIQLEDGSAAYVQHVPIPKSTGDSLRLEDGQAVQLEDGTTAFIHHTSKDSYDQSALQAVQLEDGTTAYIHHAVQVPQSDTILAIQADGTVAGLHTGDATIDPDTISALEQYAAKVSIDGSESVAGTGMIGENEQEKKMQIVLQGHATRVTAKSQQSGEKAFRCEYDGCGKLYTTAHHLKVHERSHTGDRPYQCEHAGCGKAFATGYGLKSHVRTHTGEKPYRCSEDNCTKSFKTSGDLQKHIRTHTGERPFKCPFEGCGRSFTTSNIRKVHVRTHTGERPYYCTEPGCGRAFASATNYKNHVRIHTGEKPYVCTVPGCDKRFTEYSSLYKHHVVHTHSKPYNCNHCGKTYKQISTLAMHKRTAHNDTEPIEEEQEAFFEPPPGQGEDVLKGSQITYVTGVEGDDVVSTQVATVTQSGLSQQVTLISQDGTQHVNISQADMQAIGNTITMVTQDGTPITVPAHDAVISSAGTHSVAMVTAEGTEGEQVAIVAQDLAAFHTASSEMGHQQHSHHLVTTETRPLTLVATSNGTQIAVQLGEQPSLEEAIRIASRIQQGETPGLDD [ZNF143]”: the thermal stability score in data set [2] (setting [5]) came out at 0.385; in data set [2] (cell cycle stage: mitosis), 0.819. Further, in data set [3], the “solubility in G1/S (log2)” value is -0.143. Besides, the “solubility change mitosis (log2)” value in data set [4] stood at 0.313.

The values above are taken from the supplement of paper PMC5998384.
